We go through 3 molecules from patent US10279036B2, “Antibody-albumin nanoparticle complexes comprising albumin, bevacizumab, and paclitaxel, and methods of making and using the same” (Mayo Foundation for Medical Education and Research, priority 2012, dated 2019).

Data set [1] concerns the target T1, ABRAXANE® nanoparticles (Homo sapiens, UniProt P02768).
T1 construct: purchased Celgene Corp
The experiment in a line: Complex formation of labeled therapeutic antibodies with labeled ABRAXANE nanoparticles (flow cytometry). In kind it is binding. As to conditions: fluorescently labeled, FIG. 14. The source says: The particles were spun down, washed, and visualized by flow cytometry.
For orientation: In flow cytometry, cells or beads pass a laser one at a time.

In data set [2] the test system is A375 melanoma tumor cells. The experiment in a line: A375 proliferation assay (DNA synthesis, EdU). The settings on record: 100 μg/mL, overnight. In kind it is cell-based, human.
Protocol: After the overnight incubation, cell proliferation was determined by measuring the level of DNA synthesis.
After an overnight incubation, proliferation of the cells was measured by determining the level of DNA synthesis.
Proliferation of A375 melanoma tumor cells in vitro following exposure to various treatments was assessed. […] With reference to FIG. 33, the complexes were made with an ABRAXANE®: AVASTIN® at a 2.5 to 1 ratio. […] The nanoparticles were resuspended in 0.9% saline and added to the wells containing 50,000 A375 cells. The cells were incubated overnight at 37° C. The cells were stained with a thymidine analog, EdU, which incorporates into the DNA as cells proliferate. Cells that are actively proliferating stain positive. The proliferation index was calculated as the % positive cells in treated cells/% positive cells in untreated cells.
After the overnight incubation, the A375 cells were harvested, permeabolized and intracellularly stained with a FITC conjugated anti-EdU antibody. Cell proliferation was determined by DNA synthesis as a percentage of cells, which were FITC positive on a Guava 8HT flow cytometer (Millipore Billerica, Mass.). […] The proliferation index was calculated by dividing the percentage of proliferating cells in treated wells (FITC positive) by the percentage of cells proliferating in the untreated well.
Data set [3] concerns A375 human melanoma tumor cells. The experiment in a line: A375 xenograft, ABRAXANE/AVASTIN/cisplatin complexes. As to conditions: treated once intravenously.
Protocol: Athymic nude mice were injected with 1×10^6 A375 human melanoma tumor cells. […] Following incubation, the complexes were diluted for mouse injection. Mice were treated once, and tumor growth was monitored for at least 80 days for all mice.
Data set [4] is described as follows: Bevacizumab binding of free paclitaxel (Western blot). As to conditions: 4 mg bevacizumab with 0.1-2 mg paclitaxel, 30 minutes room temperature. The procedure: The following was performed to determine if bevacizumab binds free paclitaxel. 4 mg of bevacizumab was incubated with paclitaxel (0.1, 0.5, 1, or 2 mg) for 30 minutes at room temperature.
A general note: Immunoblotting shows a protein as a band on a membrane.

Data set [5] addresses T2, human serum albumin (Homo sapiens, UniProt P02768).
T2 construct: purchased
In words: Association and dissociation of AVASTIN with human serum albumin (streptavidin sensor). In kind it is binding. As to conditions: read-out: dissociation constant. The procedure: (§1) The association and dissociation of AVASTIN® with human serum albumin and ABRAXANE® were determined. In this experiment, biotinylated AVASTIN® was bound to a streptavidin sensor. After AVASTIN® loading to the sensor, the sensor was exposed to either 1 mg/mL of human serum albumin or 1 mg/mL of ABRAXANE®. […] The dissociation constants were calculated to be 6.2×10^−6 and 5.873×10^−7 for human serum albumin and ABRAXANE®, respectively.
(§2) The association and dissociation of albumin with AVASTIN® and AVASTIN® with ABRAXANE® were determined. In this experiment, biotinylated AVASTIN® or biotinylated Albumin® was bound to a streptavidin sensor. After albumin or AVASTIN® loading to the sensor, the sensor was exposed to 1 mg/mL of AVASTIN® or 1 mg/mL of ABRAXANE®, respectively. […] The dissociation constant calculated for albumin and AVASTIN® was 6.588×10^−10. The dissociation constant calculated for AVASTIN® and ABRAXANE® in this experiment was 1.698×10^−5.

Data set [6] addresses T3, ABRAXANE® (Homo sapiens, UniProt P02768).
T3 construct: purchased Celgene Corp
The experiment in a line: Association and dissociation of AVASTIN (or IgG) with ABRAXANE (streptavidin sensor). In kind it is binding. As to conditions: biotinylated AVASTIN on streptavidin sensor, 1 mg/mL ABRAXANE, read-out: dissociation constant. As to the method:
as §1, §2
The following was performed to assess protein binding due to deglycosylation of bevacizumab compared to naturally occurring IgG. In order to determine if bevacizumab binding to ABRAXANE® is due to the deglycosylation of the Fe chain of the antibody, the binding kinetics of bevacizumab were compare to naturally produced IgG isolated from human plasma.

Where two headings read alike, the source gives them in different places.

For “rituxan: therapeutic monoclonal antibody”, the “complex formation with ABRAXANE nanoparticles” value in data set [1] is recorded as “spontaneously formed complexes with ABRAXANE® nanoparticles”.
For `N.N.[Cl][Pt][Cl]` [cisplatin, cisdiamminedichloroplatinum (II)], the cells killed in data set [2] is listed as 100%. In addition, the median survival in data set [3] is listed as 9 days.
For the molecule “AVASTIN®: humanized monoclonal antibody that binds to vascular endothelial growth factor A”, the “complex formation with ABRAXANE nanoparticles” value in data set [1] was “spontaneously formed complexes with ABRAXANE® nanoparticles”. Moreover, in data set [4], the “binding of free paclitaxel” value was “did not bind free paclitaxel”. The Kd is 6200 nM in data set [5] (biotinylated AVASTIN on streptavidin sensor, 1 mg/mL human serum albumin); 0.659 nM in data set [5] (biotinylated albumin on streptavidin sensor, 1 mg/mL AVASTIN); 580 nM in data set [6] (first experiment, listed as bevacizumab); 587 nM in data set [6] (first experiment); 17000 nM in data set [6] (second experiment).
